Measured values published in patent publication US20200325237A1 (AVIDITY BIOSCIENCES, published 2020).
Where two headings read alike, the source gives them in different places. Values belong to the binder of their own block, whether it stands above or below them.

Columns and labels:
[1] = target: T1, recombinant cyno transferrin receptor protein (Sino Biological 90253-C07H) (cyno, UniProt H9EXL1 89-760 (rhesus entry)); assay: ELISA on plate-coated recombinant cyno TfR1 (CD71); fit: specific binding with Hill slope
T1 construct: Bought protein coated on ELISA plates; also called recombinant cyno TfR1; cynoTfR1
T1 sequence (chain, as listed by the source C07H C07H): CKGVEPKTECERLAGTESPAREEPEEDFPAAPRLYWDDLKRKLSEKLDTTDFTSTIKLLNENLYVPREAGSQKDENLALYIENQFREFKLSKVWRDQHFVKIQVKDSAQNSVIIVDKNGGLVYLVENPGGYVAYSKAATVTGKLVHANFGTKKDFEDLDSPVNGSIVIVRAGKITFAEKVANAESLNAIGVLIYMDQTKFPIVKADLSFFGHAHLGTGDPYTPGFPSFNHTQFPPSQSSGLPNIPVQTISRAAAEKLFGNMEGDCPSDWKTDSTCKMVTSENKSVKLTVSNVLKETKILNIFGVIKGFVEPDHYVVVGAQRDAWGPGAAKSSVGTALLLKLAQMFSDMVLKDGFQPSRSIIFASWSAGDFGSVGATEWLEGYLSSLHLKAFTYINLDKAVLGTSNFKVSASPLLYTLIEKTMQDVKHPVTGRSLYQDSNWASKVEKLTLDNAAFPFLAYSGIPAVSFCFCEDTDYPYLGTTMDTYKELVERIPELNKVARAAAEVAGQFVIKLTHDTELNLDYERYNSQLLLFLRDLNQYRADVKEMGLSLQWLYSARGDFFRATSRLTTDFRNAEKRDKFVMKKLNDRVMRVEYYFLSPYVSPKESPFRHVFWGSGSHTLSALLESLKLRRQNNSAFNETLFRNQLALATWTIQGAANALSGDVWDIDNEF
Experimental: (§1) 100 μL of Superblock (ThermoFisher PI-37535) was added to each well and incubated for 1 hour at room temperature. The wash step was repeated before the addition of the samples. Samples were added at concentrations up to 10 nM, 50 μL/well. Plates were incubated for another hour at room temp and wash step repeated. Secondary antibody (Peroxidase AffiniPure Goat Anti-Human IgG, Fcγ Fragment Specific, Jackson Immunoresearch, 109-035-098) was diluted 1:5000 in Superblock and 50 μL/well added. Plates were incubated for 1 hour at room temperature and washed one more time. Binding was measured by the addition of 50 μL of 1-Step™ Ultra TMB-ELISA (ThermoFisher, 34028), incubated for 5 minutes, and the reaction was stopped with the addition of 25 μL of Stop Solution 2N sulfuric Acid (R&D Systems DY994). Absorbance was measured at 450 nm, with reference wavelength 570 nm subtracted. Binding constants were determined using GraphPad Prism Specific Binding with Hill Slope.
(§2) Half-well high-binding 96-well plates (Costar #3690) were coated with recombinant human transferrin receptor protein (Sino Biological 11020-H07H) or recombinant cyno transferrin receptor protein (Sino Biological 90253-C07H) at 1 ng/μL in PBS (Gibco 14190) and incubated overnight at 4° C. […] Absorbance was measured at 450 nm, with reference wavelength 570 nm subtracted. […]

[2] = target: T2, recombinant human transferrin receptor protein (Sino Biological 11020-H07H) (human, UniProt P02786 89-760); assay: ELISA on plate-coated recombinant human TfR1; fit: specific binding with Hill slope
T2 construct: Bought protein coated on ELISA plates; also called recombinant human TfR1; human TfR1
T2 sequence (P02786 89-760 limits assumed): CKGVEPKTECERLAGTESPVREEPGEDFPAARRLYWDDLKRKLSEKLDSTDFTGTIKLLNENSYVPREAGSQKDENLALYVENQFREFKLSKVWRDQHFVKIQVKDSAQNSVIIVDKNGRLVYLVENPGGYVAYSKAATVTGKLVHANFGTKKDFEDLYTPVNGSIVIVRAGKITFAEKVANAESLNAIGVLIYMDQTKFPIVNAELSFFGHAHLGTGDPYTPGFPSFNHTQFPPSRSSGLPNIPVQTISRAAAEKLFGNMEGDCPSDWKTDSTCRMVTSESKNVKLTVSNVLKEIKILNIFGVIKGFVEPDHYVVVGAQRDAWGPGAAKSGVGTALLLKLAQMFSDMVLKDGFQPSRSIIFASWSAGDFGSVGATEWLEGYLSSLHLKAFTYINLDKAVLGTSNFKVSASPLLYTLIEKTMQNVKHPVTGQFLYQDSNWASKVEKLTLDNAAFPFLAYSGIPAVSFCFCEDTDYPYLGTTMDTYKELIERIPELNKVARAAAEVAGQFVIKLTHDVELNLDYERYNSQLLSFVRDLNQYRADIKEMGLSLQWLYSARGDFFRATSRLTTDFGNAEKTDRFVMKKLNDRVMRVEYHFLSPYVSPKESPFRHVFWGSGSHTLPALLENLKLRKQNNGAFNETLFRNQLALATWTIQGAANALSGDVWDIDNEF
Experimental: as §1, §2

[3] = target: T3, hTfR (human transferrin receptor, source and construct not stated) (human, UniProt P02786 89-760, limits assumed); assay: ELISA, biotinylated antibody on hTfR captured by plate-coated human holo-transferrin (Tf+TfR); fit: specific binding with Hill slope
T3 sequence (P02786 89-760 limits assumed): as above
Experimental: (§3) Antibodies were biotinylated using 50 fold molar excess of EZ-Link No weigh NHS-Biotin (Thermo Scientific A39256) following manufacturer's instructions. Half-well high-bind plates (Costar #3690) were coated with 500 ng/mL purified human holo-transferrin (R&D Systems 2914-HT) in PBS at 4° C. overnight. For comparison, plates were coated directly with hTfR. Plates were washed four times with 100 μL of Tris buffered saline+Tween (20×TBST, Cell Signaling 9997S). 100 μL of Superblock (ThermoFisher PI-37535) was added to each well and incubated for 1 hour at room temperature. The wash step was repeated before the addition of the hTfR (200 ng/mL in 25 μl) to the transferrin plates, or Superblock to the hTfR plates, and incubated for 30 minutes. Biotinylated antibodies were diluted to 20 nM for the high concentration and added to the plates with 3-fold serial dilution. 25 μl/well was added to the 25 μl already in the plate. Plates were incubated for 1 hour, and wash step was repeated. Streptavidin-HRP (R&D Systems DY998) was added following recommended dilution on the package insert, and a final wash step was done. Binding was measured by the addition of 50 μL of 1-Step™ Ultra TMB-ELISA (ThermoFisher, 34028), incubated for 5 minutes, and the reaction was stopped with the addition of 25 μL of Stop Solution 2N sulfuric Acid (R&D Systems DY994). Absorbance was measured at 450 nm, with reference wavelength 570 nm subtracted. Binding constants were determined using GraphPad Prism Specific Binding with Hill Slope. Change in antibody binding constants in the presence versus absense of transferrin is considered relative to the commercially available antibody which is known to have an overlapping epitope with transferrin (AF2474, R&D Systems).

[4] = target: T3, hTfR (human transferrin receptor, …); assay: ELISA, biotinylated antibody on hTfR captured by plate-coated HFE (HFE+TfR)
[5] = target: T3, hTfR (human transferrin receptor, …); assay: ELISA; ratio of the Kd on transferrin-captured hTfR to the Kd on directly coated hTfR
Experimental: as §3

[6] = target: T3, hTfR (human transferrin receptor, …); assay: SPR (BioRad ProteOn XPR36), mAb captured on Protein A, hTfR as analyte, 25 C
Experimental: The binding kinetics of nine exemplary humanized anti-TfR antibodies and the parent chimeric antibody were characterized. Studies were run on a BioRad ProteOn XPR36 optical biosensor using a GLM sensor chip coated with Protein A for mAb capture. Running buffer included 10 mM EPES, 150 mM NaCl, pH 7.4 with 0.05 tween-20 with 0.2 mg/ml BSA. Data were collected at 25 degrees C. All mAbs were diluted into running buffer to 2 ug/ml based on the stock concentration provided. Each was then captured for 40 seconds over a Protein A surface.
hTfR (100 ug) was dissolved into […] of water to yield a 4.3 uM stock concentration. hTfR was dilted to 43 nM as the highest concentration and tested in a 3 fold dilution series. hTfR was injected at 200 ul/min for 2 minutes followed by a one-hour dissociation phase.

[7] = target: T1, recombinant cyno transferrin receptor …; assay: ELISA on plate-coated recombinant cyno TfR1 (CD71); fit: specific binding with Hill slope; remark: listed apart in the source
Experimental: as §1, with “Half-well high-binding 96-well plates (Costar #3690) were coated with recombinant human transferrin receptor protein (Sino Biological 11020-H07H) or recombinant cyno transferrin receptor protein (Sino Biological 90253-C07H) at 1 ng/μL in PBS (Gibco 14190) and incubated overnight at 4° C. Plates were washed four times with 100 μL of Tris buffered saline+Tween (20×TBST, Cell Signaling 9997S). 100” for “100”

[8] = target: T3, hTfR (human transferrin receptor, …); assay: ELISA; ratio of the Kd on HFE-captured hTfR to the Kd on directly coated hTfR
[9] = target: T3, hTfR (human transferrin receptor, …); assay: ELISA, biotinylated antibody on hTfR captured by plate-coated HFE (HFE+TfR); fit: specific binding with Hill slope
[10] = target: T2, recombinant human transferrin receptor …; assay: ELISA on plate-coated recombinant human TfR1 (CD71); fit: specific binding with Hill slope (row labels blank in the lower block; row taken by the order Bmax, h, Kd)
Experimental: as §1, with “Half-well high-binding 96-well plates (Costar #3690) were coated with recombinant human transferrin receptor protein (Sino Biological 11020-H07H) or recombinant cyno transferrin receptor protein (Sino Biological 90253-C07H) at 1 ng/μL in PBS (Gibco 14190) and incubated overnight at 4° C. Plates were washed four times with 100 μL of Tris buffered saline+Tween (20×TBST, Cell Signaling 9997S). 100” for “100”

[11] = target: T4, TfR2 (transferrin receptor 2) (UniProt Q9UP52 105-801, limits assumed); assay: A450 plate assay on TfR2 (method not described in the text)
T4 sequence (looked up): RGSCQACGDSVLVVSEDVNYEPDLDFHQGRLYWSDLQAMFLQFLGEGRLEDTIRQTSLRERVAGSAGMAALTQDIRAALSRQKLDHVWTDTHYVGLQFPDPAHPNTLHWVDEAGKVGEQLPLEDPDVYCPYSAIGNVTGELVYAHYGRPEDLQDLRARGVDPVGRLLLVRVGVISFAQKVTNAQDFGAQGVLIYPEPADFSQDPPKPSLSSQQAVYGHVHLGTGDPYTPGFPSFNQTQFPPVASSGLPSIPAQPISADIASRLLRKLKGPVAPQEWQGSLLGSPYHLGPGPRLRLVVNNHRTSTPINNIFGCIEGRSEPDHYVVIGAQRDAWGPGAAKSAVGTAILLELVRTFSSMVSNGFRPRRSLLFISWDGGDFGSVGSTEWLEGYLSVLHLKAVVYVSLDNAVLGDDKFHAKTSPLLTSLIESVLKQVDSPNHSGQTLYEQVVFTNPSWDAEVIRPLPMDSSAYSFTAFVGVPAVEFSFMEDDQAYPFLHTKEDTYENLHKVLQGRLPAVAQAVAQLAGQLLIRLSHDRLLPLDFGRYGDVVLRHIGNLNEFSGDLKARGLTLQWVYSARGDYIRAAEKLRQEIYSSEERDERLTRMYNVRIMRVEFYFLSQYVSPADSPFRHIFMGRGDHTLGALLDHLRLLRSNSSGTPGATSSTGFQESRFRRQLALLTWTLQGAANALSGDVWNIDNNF

Kd [1]: 4.99 pM | Kd [2]: 3.18 pM
B1: hTfR1.IgG2 mAb-SSB siRNA conjugate (DAR1) (antibody, DAR 1, V domains shown)
VH: QVQLQQPGAELVKPGASVKLSCKASGYTFTNYWMHWVKQRPGQGLEWIGEINPINGRSNYGERFKTKATLTVDKSSSTAYMQLSSLTSEDSAVYYCARGTRAMHYWGQGTSVTVSS
VL: DIQMTQSPASLSVSVGETVTITCRTSENIYNNLAWYQQKQGKSPQLLVYAATNLADGVPSRFSGSGSGTQYSLKINSLQSEDFGNYYCQHFWGTPLTFGAGTKLELKR
modifications: SSB siRNA duplex joined through a bis-maleimide (BisMal) linker to TCEP-reduced cysteines, DAR1; chain and positions not stated; remaining free cysteines capped with N-ethylmaleimide
notes: also called TfR-SSB DAR 1; conjugated hTfRL.IgG2 mAb

Kd [1]: 4.87 pM | Kd [2]: 3.22 pM
B2: hTfR1.IgG2 mAb (chimeric human IgG2 anti-hTfR1 antibody) (antibody, V domains shown)
VH: QVQLQQPGAELVKPGASVKLSCKASGYTFTNYWMHWVKQRPGQGLEWIGEINPINGRSNYGERFKTKATLTVDKSSSTAYMQLSSLTSEDSAVYYCARGTRAMHYWGQGTSVTVSS
VL: DIQMTQSPASLSVSVGETVTITCRTSENIYNNLAWYQQKQGKSPQLLVYAATNLADGVPSRFSGSGSGTQYSLKINSLQSEDFGNYYCQHFWGTPLTFGAGTKLELKR
notes: The heavy variable region is printed there only as images; also called hTfRL.IgG2 mAb; TfR1-IgG2 mAb chimera

Bmax [3]: 3.5 A450 | Kd [3]: 60.4 pM | h [3]: 1.52 | EC50 (read off the curve) [4]: ~200 pM | Kd(Tf+TfR)/Kd(TfR) [5]: 2.4 | Kd [6]: 9.99 pM | koff [6]: 6.94e-06 s⁻¹ | kon [6]: 695000 M⁻¹ s⁻¹ | Bmax [7]: 96.4 % max binding | Kd [7]: 10.3 pM | h [7]: 1.54 | Kd(HFE+TfR)/Kd(TfR) [8]: 8.5 | Bmax [9]: 1.81 A450 | Kd [9]: 214 pM | h [9]: 1.45 | Bmax [10]: 96.5 % max binding | Kd [10]: 6.29 pM | h [10]: 1.35 | binding result [11]: no binding (tested: 1000 nM)
B3: 13E4-Variant 15iii (antibody, human IgG1, kappa, L234A L235A)
heavy: QVQLVQSGAEVKKPGASVKVSCKASGYTFTNYWMHWVRQAPGQGLEWMGEINPIQGRSNYAEKFQGRVTLTVDTSSSTAYMELSSLRSEDTATYYCARGTRAMHYWGQGTLVTVSSASTKGPSVFPLAPSSKSTSGGTAALGCLVKDYFPEPVTVSWNSGALTSGVHTFPAVLQSSGLYSLSSVVTVPSSSLGTQTYICNVNHKPSNTKVDKRVEPKSCDKTHTCPPCPAPEAAGGPSVFLFPPKPKDTLMISRTPEVTCVVVDVSHEDPEVKFNWYVDGVEVHNAKTKPREEQYNSTYRVVSVLTVLHQDWLNGKEYKCKVSNKARPAPIEKTISKAKGQPREPQVYTLPPSREEMTKNQVSLTCLVKGFYPSDIAVEWESNGQPENNYKTTPPVLDSDGSFFLYSKLTVDKSRWQQGNVFSCSVMHEALHNHYTQKSLSLSPG
light: DIQMTQSPSSLSASVGDRVTITCRTSENIYSNLAWYQQKPGKAPKLLIYAGTNLADGVPSRFSGSGSGTDYTLTISSLQPEDFANYYCQHFWGTPLTFGGGTKVEIKRTVAAPSVFIFPPSDEQLKSGTASVVCLLNNFYPREAKVQWKVDNALQSGNSQESVTEQDSKDSTYSLSSTLTLSKADYEKHKVYACEVTHQGLSSPVTKSFNRGEC
notes: Humanized hIgG1 with Fc mutations; also called hIgG1 TfR-Var15iii
